Reference: US20200148755A1
Residue numbers refer to the chain shown, from its start.

B1: 5E5WT scFv-Fc antibody (scFv, part only; not given: Linker, domain order, Fc, V domains shown, not shown: another chain or arm of the molecule; a dimerising Fc or GST; small tags and cut ends)
VH: QLQLVESGGGLVQPGGSLRLSCAASGFTFGTYSMRWVRQVPRKALEWVSSISTDGGGTAYRDSVKGRFTISRDNAKNTLYLQMNNLKPEDTAIYYCVIAGYSDWGQGTQVTVSS
VL: ATMLTQSPGSLSVVPGESASISCKTSQGLVHSDGKTYFYWFLQKPGQSPQQLIYQVSNRASGVPDRFTGSGSGTDFTLKISGVKAEDAGVYYCAQGTYYPHTFGSGTRLEIK
B2: 5E5VH5_VLWT scFv-Fc antibody (scFv, part only; not given: Linker, domain order, Fc, V domains shown, not shown: another chain or arm of the molecule; a dimerising Fc or GST; small tags and cut ends)
VH: B1 VH with S52H
VL: B1 VL
B3: 5E5VH12_VLWT scFv-Fc antibody (scFv, part only; not given: Linker, domain order, Fc, V domains shown, not shown: another chain or arm of the molecule; a dimerising Fc or GST; small tags and cut ends)
VH: B1 VH with A99H
VL: B1 VL
B4: 5E5VHWT_VL8 scFv-Fc antibody (scFv, part only; not given: Linker, domain order, Fc, V domains shown, not shown: another chain or arm of the molecule; a dimerising Fc or GST; small tags and cut ends)
VH: B1 VH
VL: B1 VL with Q95H

target: biotinylated human ApoC3 (human) (UniProt P02656); experiment: SPR, biotinylated human ApoC3 on streptavidin chip, scFv-Fc injected, pH 5.5
UniProt P02656, sequence (P02656 21-99): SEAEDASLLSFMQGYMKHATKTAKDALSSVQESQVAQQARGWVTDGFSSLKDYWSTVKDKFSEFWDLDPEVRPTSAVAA

Binder	Kd [nM]	koff [s⁻¹]	kon [M⁻¹ s⁻¹]
B1	0.06	2.53e-05	393000
B2	10.9	0.0016	147000
B3	16	0.00206	129000
B4	4.29	0.00116	269000

target: biotinylated human ApoC3 (human) (UniProt P02656); experiment: SPR, biotinylated human ApoC3 on streptavidin chip, scFv-Fc injected, pH 7.4

Binder	Kd [nM]	koff [s⁻¹]	kon [M⁻¹ s⁻¹]
B1	0.02	1.75e-05	823000
B2	0.59	0.000105	178000
B3	0.51	0.000157	308000
B4	0.58	0.000221	381000

target: biotinylated human ApoC3 (human) (UniProt P02656); experiment: SPR, biotinylated human ApoC3 on streptavidin chip, scFv-Fc injected; ratio of KD at pH 5.5 to KD at pH 7.4

Binder	KD pH 5.5/KD pH 7.4
B1	3
B2	18.5
B3	31.4
B4	7.4
